What was measured:
FimH adhesin = FimH adhesin (Escherichia coli, UniProt P08191 22-300); test: AUC
[1] = target: T1, FimD usher, full-length (undigested), with C-terminal Strep-tag II (Escherichia coli, UniProt P30130 46-878); test: AUC
T1 sequence: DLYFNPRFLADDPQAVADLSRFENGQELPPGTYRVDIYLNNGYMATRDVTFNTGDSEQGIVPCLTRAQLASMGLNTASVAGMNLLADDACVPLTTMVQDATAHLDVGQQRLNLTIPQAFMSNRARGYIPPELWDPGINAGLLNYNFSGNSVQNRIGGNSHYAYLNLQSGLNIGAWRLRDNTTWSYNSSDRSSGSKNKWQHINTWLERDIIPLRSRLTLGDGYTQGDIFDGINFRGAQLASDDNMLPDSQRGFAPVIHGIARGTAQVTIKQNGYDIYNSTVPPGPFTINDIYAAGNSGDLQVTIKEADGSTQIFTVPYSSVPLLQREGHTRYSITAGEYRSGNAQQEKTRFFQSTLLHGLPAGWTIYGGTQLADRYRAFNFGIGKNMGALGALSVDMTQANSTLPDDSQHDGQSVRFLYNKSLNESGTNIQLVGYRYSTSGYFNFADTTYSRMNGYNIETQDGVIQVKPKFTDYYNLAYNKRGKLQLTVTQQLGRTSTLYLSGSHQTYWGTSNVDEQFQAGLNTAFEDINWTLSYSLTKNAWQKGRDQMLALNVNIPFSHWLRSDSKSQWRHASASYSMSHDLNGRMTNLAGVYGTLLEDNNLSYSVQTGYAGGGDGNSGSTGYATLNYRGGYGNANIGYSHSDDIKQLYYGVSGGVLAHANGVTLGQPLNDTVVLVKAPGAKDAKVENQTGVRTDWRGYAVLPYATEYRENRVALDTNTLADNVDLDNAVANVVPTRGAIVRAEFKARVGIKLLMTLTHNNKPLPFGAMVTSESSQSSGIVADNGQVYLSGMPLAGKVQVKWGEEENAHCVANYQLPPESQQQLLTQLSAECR

Sequence of FimH adhesin (P08191 22-300): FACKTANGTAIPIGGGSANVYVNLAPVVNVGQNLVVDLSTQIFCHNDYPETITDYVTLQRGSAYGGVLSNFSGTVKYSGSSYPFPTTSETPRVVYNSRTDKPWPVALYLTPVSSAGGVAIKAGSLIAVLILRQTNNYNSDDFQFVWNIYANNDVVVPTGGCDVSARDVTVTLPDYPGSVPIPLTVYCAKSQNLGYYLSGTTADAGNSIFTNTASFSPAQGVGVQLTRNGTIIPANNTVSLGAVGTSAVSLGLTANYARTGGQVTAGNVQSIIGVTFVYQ

B1: FimC chaperone (His-tagged, from pETS1001 fimCHisH) (natural protein)
chain: GVALGATRVIYPAGQKQEQLAVTNNDENSTYLIQSWVENADGVKDGRFIVTPPLFAMKGKKENTLRILDATNNQLPQDRESLFWMNVKAIPSMDKSKLTENTLQLAIISRIKLYYRPAKLALPPDQAAEKLRFRRSANSLTLINPTPYYLTVTELNAGTRVLENALVPPMGESTVKLPSDAGSNITYRTINDYGALTPKMTGVME
In the case of B1, the “stoichiometry N” value (FimH adhesin) is reported as 1 and the “stoichiometry N” value [1] is reported as 1.
